Consider one molecule from article doi:10.1101/2025.04.08.647777 (bioRxiv, 2025).

For this assay, the target named is MBP-DIC1 (UniProt O14576 1-645). Put plainly: pull-down.
Chain of MBP-DIC1 (O14576 whole entry): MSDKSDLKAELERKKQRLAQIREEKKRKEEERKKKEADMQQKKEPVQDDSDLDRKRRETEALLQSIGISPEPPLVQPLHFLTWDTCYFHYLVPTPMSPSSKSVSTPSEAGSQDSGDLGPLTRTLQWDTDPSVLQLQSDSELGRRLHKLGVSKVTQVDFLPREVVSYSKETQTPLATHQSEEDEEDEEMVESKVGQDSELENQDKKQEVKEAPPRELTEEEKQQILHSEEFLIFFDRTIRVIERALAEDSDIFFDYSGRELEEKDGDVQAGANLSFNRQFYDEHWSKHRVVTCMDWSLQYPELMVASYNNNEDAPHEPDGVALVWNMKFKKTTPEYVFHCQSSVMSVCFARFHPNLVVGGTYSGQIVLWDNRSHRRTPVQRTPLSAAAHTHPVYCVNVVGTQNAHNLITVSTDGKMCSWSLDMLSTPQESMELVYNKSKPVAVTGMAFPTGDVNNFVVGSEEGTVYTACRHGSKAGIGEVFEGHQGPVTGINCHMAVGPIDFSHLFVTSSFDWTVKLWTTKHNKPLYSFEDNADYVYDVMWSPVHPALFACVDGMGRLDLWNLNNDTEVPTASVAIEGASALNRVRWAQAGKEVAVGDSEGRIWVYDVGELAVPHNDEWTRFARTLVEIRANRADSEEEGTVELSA

B1: GST-CSN7A (natural protein)
chain: MSAEVKVTGQNQEQFLLLAKSAKGAALATLIHQVLEAPGVYVFGELLDMPNVRELAESDFASTFRLLTVFAYGTYADYLAEARNLPPLTEAQKNKLRHLSVVTLAAKVKCIPYAVLLEALALRNVRQLEDLVIEAVYADVLRGSLDQRNQRLEVDYSIGRDIQRQDLSAIARTLQEWCVGCEVVLSGIEEQVSRANQHKEQQLGLKQQIESEVANLKKTIKVTTAAAAAATSQDPEQHLTELREPAPGTNQRQPSKKASKGKGLRGSAKIWSKSN
As to B1, the binding result was “binds”.
